In PMC9482650, “Quantitative fragmentomics allow affinity mapping of interactomes” (Nature Communications, 2022):

Tests used:
Assay in all cases: holdup assay
Set-up in all cases: key: below the threshold = too weak to quantify, mostly under pKd 3.1 to 4
DFNB31_2, Q9P202 = target: T1, DFNB31_2, Q9P202
T1 sequence (Q9P202 274-371, limits assumed, looked up): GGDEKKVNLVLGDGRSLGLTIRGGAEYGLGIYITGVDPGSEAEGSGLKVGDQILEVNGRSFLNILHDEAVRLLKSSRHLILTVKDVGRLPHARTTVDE

DFNB31_3, Q9P202 = target: T2, DFNB31_3, Q9P202
T2 sequence (Q9P202 811-907, limits assumed, looked up): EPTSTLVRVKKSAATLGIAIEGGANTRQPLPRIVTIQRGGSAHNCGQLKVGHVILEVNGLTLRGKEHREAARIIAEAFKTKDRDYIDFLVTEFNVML

SCRIB_3, Q14160 = target: SCRIB_3, Q14160
Sequence of SCRIB_3, Q14160 (Q14160 999-1103): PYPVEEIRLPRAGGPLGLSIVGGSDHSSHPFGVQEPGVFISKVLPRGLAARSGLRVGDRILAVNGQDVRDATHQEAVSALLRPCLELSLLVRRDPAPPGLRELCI

PICK1, Q9NRD5 = target: PICK1, Q9NRD5
Sequence of PICK1, Q9NRD5 (Q9NRD5 17-115): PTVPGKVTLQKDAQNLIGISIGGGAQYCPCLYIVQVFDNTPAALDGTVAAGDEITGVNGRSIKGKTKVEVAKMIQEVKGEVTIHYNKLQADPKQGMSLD

MAGI2_5, Q86UL8 = target: MAGI2_5, Q86UL8
Sequence of MAGI2_5, Q86UL8 (Q86UL8 915-1017): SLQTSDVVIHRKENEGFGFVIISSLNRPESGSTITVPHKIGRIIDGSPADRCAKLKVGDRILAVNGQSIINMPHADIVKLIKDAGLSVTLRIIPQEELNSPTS

MAGI2_2, Q86UL8 = target: MAGI2_2, Q86UL8
Sequence of MAGI2_2, Q86UL8 (Q86UL8 410-522): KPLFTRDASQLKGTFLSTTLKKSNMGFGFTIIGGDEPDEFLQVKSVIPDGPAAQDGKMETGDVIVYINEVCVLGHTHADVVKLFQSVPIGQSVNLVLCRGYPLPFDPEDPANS

TX1BP3, O14907 = target: T3, TX1BP3, O14907
T3 sequence (O14907 10-122, limits assumed, looked up): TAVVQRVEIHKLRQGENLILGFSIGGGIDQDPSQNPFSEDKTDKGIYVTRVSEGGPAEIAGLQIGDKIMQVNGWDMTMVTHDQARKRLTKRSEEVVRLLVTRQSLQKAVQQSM

DLG3_3, Q92796 = target: T4, DLG3_3, Q92796
T4 sequence (Q92796 374-475, limits assumed, looked up): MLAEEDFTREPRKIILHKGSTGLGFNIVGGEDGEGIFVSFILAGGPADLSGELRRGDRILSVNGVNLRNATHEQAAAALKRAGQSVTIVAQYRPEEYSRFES

FRMPD2_3, Q68DX3 = target: FRMPD2_3, Q68DX3
Sequence of FRMPD2_3, Q68DX3 (Q68DX3 1073-1166): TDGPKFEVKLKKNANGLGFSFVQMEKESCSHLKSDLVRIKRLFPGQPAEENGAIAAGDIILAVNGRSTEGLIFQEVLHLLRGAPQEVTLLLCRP

Inadl_5, Q8NI35 = target: Inadl_5, Q8NI35
Sequence of Inadl_5, Q8NI35 (Q8NI35 673-780): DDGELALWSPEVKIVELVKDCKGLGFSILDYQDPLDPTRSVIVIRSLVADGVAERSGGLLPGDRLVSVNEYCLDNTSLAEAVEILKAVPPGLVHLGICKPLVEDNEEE

NOS1, P29475 = target: NOS1, P29475
Sequence of NOS1, P29475 (P29475 9-101): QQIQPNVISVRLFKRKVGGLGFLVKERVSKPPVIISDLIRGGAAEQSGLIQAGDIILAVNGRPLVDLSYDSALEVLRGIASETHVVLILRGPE

Inadl_1, Q8NI35 = target: Inadl_1, Q8NI35
Sequence of Inadl_1, Q8NI35 (Q8NI35 113-229): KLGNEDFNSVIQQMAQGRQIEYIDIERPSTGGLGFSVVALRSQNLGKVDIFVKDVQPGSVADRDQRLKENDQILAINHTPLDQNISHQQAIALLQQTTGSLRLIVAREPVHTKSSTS

GRIP2_4, Q9C0E4 = target: GRIP2_4, Q9C0E4
Sequence of GRIP2_4, Q9C0E4 (Q9C0E4 446-548): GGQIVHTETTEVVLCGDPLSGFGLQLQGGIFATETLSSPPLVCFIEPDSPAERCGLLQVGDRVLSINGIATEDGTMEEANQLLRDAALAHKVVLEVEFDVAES

PDZD2_2, O15018 = target: T5, PDZD2_2, O15018
T5 sequence (O15018 329-429, limits assumed, looked up): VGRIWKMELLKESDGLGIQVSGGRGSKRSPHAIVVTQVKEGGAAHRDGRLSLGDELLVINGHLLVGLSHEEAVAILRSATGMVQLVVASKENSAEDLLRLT

RADIL, Q96JH8 = target: T6, RADIL, Q96JH8
T6 sequence (Q96JH8 971-1071, limits assumed, looked up): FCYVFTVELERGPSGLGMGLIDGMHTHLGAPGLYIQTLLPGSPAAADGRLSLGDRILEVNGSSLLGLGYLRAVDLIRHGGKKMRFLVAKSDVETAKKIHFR

LAP2, Q96RT1 = target: LAP2, Q96RT1
Sequence of LAP2, Q96RT1 (Q96RT1 other isoform, or with tags, fused parts or gaps): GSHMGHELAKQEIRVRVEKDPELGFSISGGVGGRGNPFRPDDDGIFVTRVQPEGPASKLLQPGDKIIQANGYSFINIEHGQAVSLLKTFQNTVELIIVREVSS

IL16_3, Q14005 = target: IL16_3, Q14005
Sequence of IL16_3, Q14005 (Q14005 1107-1207): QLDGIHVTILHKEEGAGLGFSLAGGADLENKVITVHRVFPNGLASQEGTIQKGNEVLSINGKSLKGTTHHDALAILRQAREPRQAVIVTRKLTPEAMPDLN

HTRA2, O43464 = target: HTRA2, O43464
Sequence of HTRA2, O43464 (O43464 355-458): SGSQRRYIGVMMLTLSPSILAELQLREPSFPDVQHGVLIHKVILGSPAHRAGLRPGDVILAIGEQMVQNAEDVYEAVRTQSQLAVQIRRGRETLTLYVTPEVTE

MPP7, Q5T2T1 = target: T7, MPP7, Q5T2T1
T7 sequence (Q5T2T1 134-230, limits assumed, looked up): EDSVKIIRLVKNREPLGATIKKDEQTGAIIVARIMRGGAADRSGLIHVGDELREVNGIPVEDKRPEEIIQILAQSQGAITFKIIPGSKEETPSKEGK

HTRA4, P83105 = target: T8, HTRA4, P83105
T8 sequence (P83105 378-476, limits assumed, looked up): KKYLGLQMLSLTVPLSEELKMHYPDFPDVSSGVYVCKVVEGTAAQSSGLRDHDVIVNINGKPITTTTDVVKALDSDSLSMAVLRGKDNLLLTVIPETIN

PTPN13_1, Q12923 = target: T9, PTPN13_1, Q12923
T9 sequence (Q12923 1088-1188, limits assumed, looked up): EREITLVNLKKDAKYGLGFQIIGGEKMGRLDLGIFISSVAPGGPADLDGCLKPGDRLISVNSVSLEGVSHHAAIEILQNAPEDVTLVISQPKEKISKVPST

MAST1, Q9Y2H9 = target: MAST1, Q9Y2H9
Sequence of MAST1, Q9Y2H9 (Q9Y2H9 962-1065): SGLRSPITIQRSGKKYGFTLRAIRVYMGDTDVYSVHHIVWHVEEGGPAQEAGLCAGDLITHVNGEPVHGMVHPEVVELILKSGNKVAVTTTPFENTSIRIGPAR

DLG3_2, Q92796 = target: T10, DLG3_2, Q92796
T10 sequence (Q92796 221-321, limits assumed, looked up): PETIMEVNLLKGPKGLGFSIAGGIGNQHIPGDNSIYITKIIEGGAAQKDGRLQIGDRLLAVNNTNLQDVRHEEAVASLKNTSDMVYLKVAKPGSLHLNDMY

Inadl_6, Q8NI35 = target: Inadl_6, Q8NI35
Sequence of Inadl_6, Q8NI35 (Q8NI35 1058-1167): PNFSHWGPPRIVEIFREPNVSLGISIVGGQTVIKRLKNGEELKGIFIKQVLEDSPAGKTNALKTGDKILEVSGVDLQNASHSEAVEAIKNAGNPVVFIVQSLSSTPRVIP

DLG4_3, P78352 = target: DLG4_3, P78352
Sequence of DLG4_3, P78352 (P78352 306-403): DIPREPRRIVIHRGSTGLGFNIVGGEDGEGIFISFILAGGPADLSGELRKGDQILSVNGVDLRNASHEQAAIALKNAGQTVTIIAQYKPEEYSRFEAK

LIN7C, Q9NUP9 = target: T11, LIN7C, Q9NUP9
T11 sequence (Q9NUP9 88-185, limits assumed, looked up): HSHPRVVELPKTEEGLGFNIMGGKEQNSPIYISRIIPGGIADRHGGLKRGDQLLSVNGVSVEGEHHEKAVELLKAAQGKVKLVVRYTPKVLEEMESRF

Inadl_4, Q8NI35 = target: Inadl_4, Q8NI35
Sequence of Inadl_4, Q8NI35 (Q8NI35 547-651): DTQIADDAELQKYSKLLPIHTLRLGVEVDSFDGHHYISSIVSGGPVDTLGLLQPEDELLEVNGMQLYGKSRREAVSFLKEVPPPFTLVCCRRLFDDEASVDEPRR

[1] = plain residues with an end cap or a label only (N-terminal biotin on a linker: ado-ado)
[2] = plain residues with an end cap or a label only (N-terminal biotin on a linker: (peg)3)

For RPGFASESKV [ADRB1, P08588], the pKd (DFNB31_2, Q9P202; [1]) was “below the threshold”, the pKd (DFNB31_3, Q9P202; [1]) was “below the threshold” and the pKd (SCRIB_3, Q14160; [1]) was 3.49. The pKd (PICK1, Q9NRD5; [1]) was “below the threshold”, the pKd (MAGI2_5, Q86UL8; [1]) was “below the threshold” and the pKd (MAGI2_2, Q86UL8; [1]) was 4.6. The pKd (TX1BP3, O14907; [1]) was 4.72, the pKd (DLG3_3, Q92796; [1]) was 3.7 and the pKd (FRMPD2_3, Q68DX3; [1]) was “below the threshold”. The pKd (Inadl_5, Q8NI35; [1]) was “below the threshold”, the pKd (NOS1, P29475; [1]) was 3.6 and the pKd (Inadl_1, Q8NI35; [1]) was “below the threshold”. The pKd (GRIP2_4, Q9C0E4; [1]) was “below the threshold”, the pKd (PDZD2_2, O15018; [1]) was 4.2 and the pKd (RADIL, Q96JH8; [1]) was “below the threshold”. The pKd (LAP2, Q96RT1; [1]) was 3.95, the pKd (IL16_3, Q14005; [1]) was “below the threshold” and the pKd (HTRA2, O43464; [1]) was “below the threshold”. For the same binder, the pKd (MPP7, Q5T2T1; [1]) was “below the threshold”, the pKd (HTRA4, P83105; [1]) was “below the threshold” and the pKd (PTPN13_1, Q12923; [1]) was “below the threshold”. The pKd (MAST1, Q9Y2H9; [1]) was 3.66, the pKd (DLG3_2, Q92796; [1]) was 3.61 and the pKd (Inadl_6, Q8NI35; [1]) was “below the threshold”. The pKd (DLG4_3, P78352; [1]) was “below the threshold”, the pKd (LIN7C, Q9NUP9; [1]) was “below the threshold” and the pKd (Inadl_4, Q8NI35; [1]) was “below the threshold”.

In the case of YDEPTTTTSVPL [SARS-Cov2-3a, P0DTC3], the pKd (DFNB31_2, Q9P202; [2]) is reported as “below the threshold”, the pKd (DFNB31_3, Q9P202; [2]) is reported as “below the threshold” and the pKd (SCRIB_3, Q14160; [2]) is reported as “below the threshold”. The pKd (PICK1, Q9NRD5; [2]) was “below the threshold”, the pKd (MAGI2_5, Q86UL8; [2]) was “below the threshold” and the pKd (MAGI2_2, Q86UL8; [2]) was “below the threshold”. For the same binder, the pKd (TX1BP3, O14907; [2]) was “below the threshold”, the pKd (DLG3_3, Q92796; [2]) was “below the threshold” and the pKd (FRMPD2_3, Q68DX3; [2]) was “below the threshold”. The pKd (Inadl_5, Q8NI35; [2]) was “below the threshold”, the pKd (NOS1, P29475; [2]) was “below the threshold” and the pKd (Inadl_1, Q8NI35; [2]) was “below the threshold”. The pKd (GRIP2_4, Q9C0E4; [2]) was “below the threshold”, the pKd (PDZD2_2, O15018; [2]) was “below the threshold” and the pKd (RADIL, Q96JH8; [2]) was “below the threshold”. The pKd (LAP2, Q96RT1; [2]) was “below the threshold”, the pKd (IL16_3, Q14005; [2]) was “below the threshold” and the pKd (HTRA2, O43464; [2]) was “below the threshold”. The pKd (MPP7, Q5T2T1; [2]) was “below the threshold”, the pKd (HTRA4, P83105; [2]) was “below the threshold” and the pKd (PTPN13_1, Q12923; [2]) was “below the threshold”. For the same binder, the pKd (MAST1, Q9Y2H9; [2]) was “below the threshold”, the pKd (DLG3_2, Q92796; [2]) was “below the threshold” and the pKd (Inadl_6, Q8NI35; [2]) was “below the threshold”. The pKd (DLG4_3, P78352; [2]) was “below the threshold”, the pKd (LIN7C, Q9NUP9; [2]) was “below the threshold” and the pKd (Inadl_4, Q8NI35; [2]) was “below the threshold”.

For LTAQEQPVYI [APBA1, Q02410], the pKd (DFNB31_2, Q9P202; [1]) was “below the threshold”, the pKd (DFNB31_3, Q9P202; [1]) was 3.5 and the pKd (SCRIB_3, Q14160; [1]) was “below the threshold”. For the same binder, the pKd (PICK1, Q9NRD5; [1]) was “below the threshold”, the pKd (MAGI2_5, Q86UL8; [1]) was “below the threshold” and the pKd (MAGI2_2, Q86UL8; [1]) was 3.52. The pKd (TX1BP3, O14907; [1]) was “below the threshold”, the pKd (DLG3_3, Q92796; [1]) was “below the threshold” and the pKd (FRMPD2_3, Q68DX3; [1]) was “below the threshold”. The pKd (Inadl_5, Q8NI35; [1]) was 3.86, the pKd (NOS1, P29475; [1]) was 4.07 and the pKd (Inadl_1, Q8NI35; [1]) was “below the threshold”. For the same binder, the pKd (GRIP2_4, Q9C0E4; [1]) was “below the threshold”, the pKd (PDZD2_2, O15018; [1]) was 4.36 and the pKd (RADIL, Q96JH8; [1]) was 4.53. The pKd (LAP2, Q96RT1; [1]) was “below the threshold”, the pKd (IL16_3, Q14005; [1]) was “below the threshold” and the pKd (HTRA2, O43464; [1]) was 3.53. For the same binder, the pKd (MPP7, Q5T2T1; [1]) was “below the threshold”, the pKd (HTRA4, P83105; [1]) was 4.89 and the pKd (PTPN13_1, Q12923; [1]) was “below the threshold”. The pKd (MAST1, Q9Y2H9; [1]) was 3.58, the pKd (DLG3_2, Q92796; [1]) was 4.06 and the pKd (Inadl_6, Q8NI35; [1]) was “below the threshold”. The pKd (DLG4_3, P78352; [1]) was “below the threshold”, the pKd (LIN7C, Q9NUP9; [1]) was “below the threshold” and the pKd (Inadl_4, Q8NI35; [1]) was “below the threshold”.

With RTQSSDSAYV [GJD2, Q9UKL4] the pKd (DFNB31_2, Q9P202; [1]) was “below the threshold”, the pKd (DFNB31_3, Q9P202; [1]) was “below the threshold” and the pKd (SCRIB_3, Q14160; [1]) was “below the threshold”. For the same binder, the pKd (PICK1, Q9NRD5; [1]) was “below the threshold”, the pKd (MAGI2_5, Q86UL8; [1]) was “below the threshold” and the pKd (MAGI2_2, Q86UL8; [1]) was “below the threshold”. The pKd (TX1BP3, O14907; [1]) was “below the threshold”, the pKd (DLG3_3, Q92796; [1]) was “below the threshold” and the pKd (FRMPD2_3, Q68DX3; [1]) was 3.71. For the same binder, the pKd (Inadl_5, Q8NI35; [1]) was 3.5, the pKd (NOS1, P29475; [1]) was 3.95 and the pKd (Inadl_1, Q8NI35; [1]) was “below the threshold”. The pKd (GRIP2_4, Q9C0E4; [1]) was “below the threshold”, the pKd (PDZD2_2, O15018; [1]) was 5.15 and the pKd (RADIL, Q96JH8; [1]) was 4.43. For the same binder, the pKd (LAP2, Q96RT1; [1]) was “below the threshold”, the pKd (IL16_3, Q14005; [1]) was “below the threshold” and the pKd (HTRA2, O43464; [1]) was “below the threshold”. For the same binder, the pKd (MPP7, Q5T2T1; [1]) was “below the threshold”, the pKd (HTRA4, P83105; [1]) was “below the threshold” and the pKd (PTPN13_1, Q12923; [1]) was “below the threshold”. The pKd (MAST1, Q9Y2H9; [1]) was “below the threshold”, the pKd (DLG3_2, Q92796; [1]) was “below the threshold” and the pKd (Inadl_6, Q8NI35; [1]) was “below the threshold”. For the same binder, the pKd (DLG4_3, P78352; [1]) was “below the threshold”, the pKd (LIN7C, Q9NUP9; [1]) was “below the threshold” and the pKd (Inadl_4, Q8NI35; [1]) was “below the threshold”.
